Columns and labels:
[1] = target: CD47 (Homo sapiens) (UniProt Q08722); conditions: cited from earlier work
[2] = target: CD47 (Mus musculus) (UniProt Q61735); conditions: cited from earlier work
[3] = target: human CD47 on cells (human (endogenous in HCT116, MDA-MB-468, OVCAR3, HUVEC, C5120)) (UniProt Q08722)

Chain of SIRPα-Fc (P78324 31-373): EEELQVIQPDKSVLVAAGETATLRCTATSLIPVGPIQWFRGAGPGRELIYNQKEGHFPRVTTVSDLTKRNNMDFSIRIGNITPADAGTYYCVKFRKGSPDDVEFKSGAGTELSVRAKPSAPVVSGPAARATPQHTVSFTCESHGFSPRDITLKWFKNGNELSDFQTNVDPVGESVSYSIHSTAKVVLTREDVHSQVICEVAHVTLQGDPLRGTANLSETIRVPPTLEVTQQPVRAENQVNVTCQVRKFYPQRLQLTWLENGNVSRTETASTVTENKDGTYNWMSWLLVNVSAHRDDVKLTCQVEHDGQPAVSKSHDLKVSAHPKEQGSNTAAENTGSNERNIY
Chain of UniProt Q61735 (Q61735 19-303): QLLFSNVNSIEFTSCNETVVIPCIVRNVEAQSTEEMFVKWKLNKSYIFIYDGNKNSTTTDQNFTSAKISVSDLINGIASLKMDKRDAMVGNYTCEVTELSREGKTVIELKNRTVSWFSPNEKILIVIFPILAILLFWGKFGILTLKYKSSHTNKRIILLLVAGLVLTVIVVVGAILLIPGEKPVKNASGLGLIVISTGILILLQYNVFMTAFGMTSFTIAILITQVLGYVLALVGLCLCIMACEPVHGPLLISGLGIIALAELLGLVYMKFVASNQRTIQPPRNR

| Substance | Kd [1] [nM] | Kd [2] [nM] | macrophage ADCP on-chip of MDA-MB-468 cells, fold increase over the background; AdV delivery of SIRPα-Fc alone (blocks the CD47-SIRPα axis) [3] [fold] |
| --- | --- | --- | --- |
| SIRPα-Fc (from UniProt P78324) | 1 | 58 |  |
| SIRPα-Fc fusion protein |  |  | 1.7 |
